Measurements: US20090169552A1 (FRED HUTCHINSON CANCER RESEARCH CENTER, published 2009)
One block for each binder: values may come before it.

B3: MICA tetramer (recombinant MICA*001, residues 1-276, produced in transfected 293T cells, biotinylated and conjugated with PE-streptavidin) (ligand)
chain: EPHSLRYNLTVLSWDGSVQSGFLTEVHLDGQPFLRCDRQKCRAKPQGQWAEDVLGNKTWDRETRDLTGNGKDLRMTLAHIKDQKEGLHSLQEIRVCEIHEDNSTRSSQHFYYDGELFLSQNLETKEWTMPQSSRAQTLAMNVRNFLKEDAMKTKTHYHAMHADCLQELRRYLKSGVVLRRTVPPMVNVTRSEASEGNITVTCRASGFYPWNITLSWRQDGVSLSHDTQQWGDVLPDGNGTYQTWVATRICQGEEQRFTCYMEHSGNHSTHPVPSGK
modifications: glycosylated (secreted by 293T cells); BirA enzymatic biotinylation, conjugated with phycoerythrin (PE)-streptavidin
notes: Residues 1-276 probably count on the mature protein; also called MICA tetramers; PE-MICA tetramer

Experiments:
[1] = target: B3; experiment: flow cytometry, tetramer staining of NKL cells
Source text: Early studies of NKG2D interactions with its ligands utilized randomly oligomerized recombinant MICA (rMICA) or ULBP family ligands produced as immunoglobulin fusion proteins, all of which bound exclusively to NKG2D expressing lymphocytes (Bauer et al., 1999; Cosman et al., 2001). Testing MICA and ULBP2 tetramers, the inventors confirmed that these high avidity reagents stained the NKL NK cell line and that binding was entirely accounted for by NKG2D (FIG. 1A). However, in the course of screening ˜40 cell lines by flow cytometry, the inventors observed that MICA, but not ULBP2, tetramers stained cell types lacking NKG2D. The highest fluorescence intensities were recorded with U266 myeloma cells and all of 10 epithelial tumor lines tested and correlated with relatively large amounts of cell surface MICA. Only monocytic U937 cells were identified as negative for tetramer binding (FIG. 1A). The MICA tetramers were prepared using glycosylated protein secreted by transfected 293T cells. However, tetramer binding was not reduced after cleavage of cell surface polypeptide-linked carbohydrates but was inhibited in the presence of unglycosylated rMICA (FIG. 1A).

[2] = target: T1, Siderocalin, expressed in bacteria, P80188
T1 chain: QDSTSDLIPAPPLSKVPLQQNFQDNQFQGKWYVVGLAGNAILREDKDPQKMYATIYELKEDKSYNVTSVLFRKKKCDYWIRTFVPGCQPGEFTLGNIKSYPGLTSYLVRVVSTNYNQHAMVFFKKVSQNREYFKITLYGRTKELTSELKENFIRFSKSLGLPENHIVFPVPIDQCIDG

[3] = target: T2, ERp5 (endoplasmic reticulum protein 5) on the cell surface (Homo sapiens (Human), UniProt Q15084 20-440); experiment: flow cytometry of freshly isolated tumor cells
T2 construct: Also stands for the native 50 kD ERp5 solubilised from U266 outer cell membranes in the MICA bead purification; also called surface ERp5; disulfide isomerase-related protein P5
T2 sequence: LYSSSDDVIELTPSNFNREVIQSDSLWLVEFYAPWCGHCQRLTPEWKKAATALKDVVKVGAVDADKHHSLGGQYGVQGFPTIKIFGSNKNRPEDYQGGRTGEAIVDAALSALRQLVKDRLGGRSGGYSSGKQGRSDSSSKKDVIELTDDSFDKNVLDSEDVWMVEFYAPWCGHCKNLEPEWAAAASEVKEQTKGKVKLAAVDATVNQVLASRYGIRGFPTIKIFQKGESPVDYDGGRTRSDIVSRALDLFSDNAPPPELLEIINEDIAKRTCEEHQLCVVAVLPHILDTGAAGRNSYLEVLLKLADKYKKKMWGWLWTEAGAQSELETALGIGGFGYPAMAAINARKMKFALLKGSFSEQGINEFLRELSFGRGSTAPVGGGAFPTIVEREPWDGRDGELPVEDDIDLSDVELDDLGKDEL

[4] = target: T3, C39S mutant of ERp5 fragment 1-118 (Homo sapiens (Human), UniProt Q15084 20-137, C39S); experiment: purified proteins mixed, non-reducing SDS-PAGE
T3 construct: Position 39 counts on the mature protein; not shown: N-terminal hexahistidine tract
T3 sequence: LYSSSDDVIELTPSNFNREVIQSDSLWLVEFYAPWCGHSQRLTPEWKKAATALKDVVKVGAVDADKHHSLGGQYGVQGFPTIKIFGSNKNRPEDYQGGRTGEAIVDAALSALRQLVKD
Source text: ERp5 activity assays. Ectodomain-only MICA, Siderocalin, and CD94-NKG2A were expressed in bacteria and purified as described (Li et al., 2001). […] All ERp5 sequences were fused to N-terminal hexahistidine tracts and included a C-terminal stop codon to prevent expression of the adjacent hexahistidine in pET22(b). Recombinant proteins were purified by metal affinity (BD Talon, Clontech) and size exclusion chromatography (Superdex 200, Pharmacia).

B2: recombinant ERp5 (residues 1-421 of the mature protein), bacterially produced, N-terminal hexahistidine (protein)
chain: LYSSSDDVIELTPSNFNREVIQSDSLWLVEFYAPWCGHCQRLTPEWKKAATALKDVVKVGAVDADKHHSLGGQYGVQGFPTIKIFGSNKNRPEDYQGGRTGEAIVDAALSALRQLVKDRLGGRSGGYSSGKQGRSDSSSKKDVIELTDDSFDKNVLDSEDVWMVEFYAPWCGHCKNLEPEWAAAASEVKEQTKGKVKLAAVDATVNQVLASRYGIRGFPTIKIFQKGESPVDYDGGRTRSDIVSRALDLFSDNAPPPELLEIINEDIAKRTCEEHQLCVVAVLPHILDTGAAGRNSYLEVLLKLADKYKKKMWGWLWTEAGAQSELETALGIGGFGYPAMAAINARKMKFALLKGSFSEQGINEFLRELSFGRGSTAPVGGGAFPTIVEREPWDGRDGELPVEDDIDLSDVELDDLGKDEL
disulfide bond reduction, non-reducing gel electrophoresis [2]: ERp5 did not affect unrelated proteins with relatively accessible intrachain (Siderocalin) or intrachain and interchain (CD94-NKG2A) disulfide bonds

Binder: B3
binding result [3]: binds

Next, values leading:

binding result [1]: binds
B1: NKG2D on NKL NK cells (receptor, human, UniProt P26718 1-216, looked up)
chain: MGWIRGRRSRHSWEMSEFHNYNLDLKKSDFSTRWQKQRCPVVKSKCRENASPFFFCCFIAVAMGIRFIIMVTIWSAVFLNSLFNQEVQIPLTESYCGPCPKNWICYKNNCYQFFDESKNWYESQASCMSQNASLLKVYSKEDQDLLKLVKSYHWMGLVHIPTNGSWQWEDGSILSPNLLTIIEMQKGDCALYASSFKGYIENCSTPNTYICMQRTV
notes: whole, on cells; On cells paired with DAP10 according to the description; also called KLRK1

binding result [4]: binds
B4: isolated MICA α3 domain (residues 187-274), expressed in bacteria (ligand)
chain: NVTRSEASEGNITVTCRASGFYPWNITLSWRQDGVSLSHDTQQWGDVLPDGNGTYQTWVATRICQGEEQRFTCYMEHSGNHSTHPVPS
notes: Numbering probably of the mature protein (Li et al., 1999); also called α3 membrane-proximal domain
